Experimental data: the RNAGym collection of RNA variant scans (doi:10.1021/acssynbio.7b00057)

B1: Pistol ribozyme (parent)
chain: GGGUCGUUGUUCCAUAAUCGCGUGGAUAUGGCACGCAAGUUUCUACCGGGCACCGUAAAUGUCCGACUGGAGCCGUUCGGGCGGCUAUAAACAGACCUCAGGCCCGAAGCGUGGCGGCACCUGCCGCCGGUGGUAAAAAAGAUCGGAAGAGCACACGUCU

Variants of: B1
Experiment: aptazyme ON/OFF ratio, guanine; higher = stronger switching; co-transcriptional cleavage with and without guanine

Variant	aptazyme ON/OFF ratio
U7A U8C G9A U11C C12U C13G	1.16
U8G G9C U11G C12U C13G	1.13
U7A U8G U10G U11G C13A	1.39
U7C U8C G9A U10C U11C C12U C13A	1.2
U7A U8G G9A U10A U11C C12G C13U	1.33
U7A U8A G9U U10A U11G C12G C13U	1.36
U8A G9A U10A U11G C12U C13G	1.18
U7C U8C G9U U11G C12A C13G	1.11
U7C G9U U11A C12U	1.39
U7A U8G G9U U10G U11A C13G	1.25
U7A U8A G9U U10C U11A C12U C13U	1.22
U7G U8C G9U U10A U11A C12U	2.3
U7G U8G G9U U10C C12U C13A	1.22
U7G U8C G9U U10C U11G C12A C13U	1.25
U7C U8G G9U U11A C12U C13A	1.43
U7C U8A U10G U11C C12G C13A	1.3
U7A U8C G9C U10A U11A C12U C13U	1.05
G9U U10G U11G C12U C13A	1.1
U7C U8A U10G U11C C13U	1.05
U7A U8A G9A U10A U11C C12G	1.17
U7G U8G G9U U10G U11A C12U C13U	1.2
U7A U11A C12U C13A	1.26
U7G G9A U11C C12U C13A	1.15
U7G U8C G9U U10C U11A C12A C13A	1.52

Variant	aptazyme ON/OFF ratio
U8A G9U U10G U11A C12G	1.28
U7G G9U U10G C13A	1.39
U8G G9U U10A U11C C12G C13A	1.08
U7C U8A G9A U10C U11C	1.02
U8G G9C U10C U11A C12U C13G	1.02
U8A U10A C13U	1.03
U8C U10G U11A C12U	1.08
U7G U8G G9U U10C U11A C12A C13G	1.24
U7C G9U U11C C12G C13U	1.07
U7G U8C U10A U11A	2.71
U8C G9C U10A U11G C12G C13A	1.19
U7G U8G U10A U11G C12U C13A	1.23
U7G G9C U10A U11C C12U	1.46
U7C U8A G9U U10C U11C C12G C13A	1.09
U7G U8C G9U C12A C13U	1.2
U7A U8C G9C U10G U11G C12G	1.13
U7G U8G G9A U11A C12A C13A	1.23
U7C U8A U10G C12U C13A	1.34
U8A U10A U11C C12U C13G	1.09
U8G G9A C12A C13U	1.39
U7A U8G U10G U11G C12A C13U	1.41
U8A G9U U10C C12U	1.08
U7G U11C C12U C13U	1.19
U7G U8G G9A U11C C12G C13G	1.11

Variant	aptazyme ON/OFF ratio
U7G U8A G9U U10C U11A C12G	1.13
U7C G9C U10G U11C	1.05
U7G U8C G9C U11G C12G	1.07
U7G U8G G9U U11G C12U C13A	1.07
U8A G9U U11C C12G C13A	1.14
U7G U8G G9A U10A U11C	1.02
U7A U10A U11A C13U	1.16
U7A G9C U10G C12A C13A	1.08
U8C G9A U10G U11C C12G	1.23
U7A U8G G9U U11A	2.05
U8G G9C	1.09
U7C G9A U10C	4.55
G9U C12U	2.37
U7G U8C G9C U10C C12G C13A	1.14
U7C G9C U10C U11G C12U C13G	1.1
U7G U8A G9C U10A U11G C12G C13U	1.04
G9C U10A U11C C12A	1.48
U10C U11C C12U	1.08
U7A G9U U11A C12A C13U	1.19
U7A U10C U11G C13G	1.2
U7G U8C G9A U10G C13A	1.28
U7A U8C G9C U10G U11G C12A	1.24
U7G U8C G9A U10A C12U C13G	1.13
U7G U8G G9A U10G U11A C12U C13G	1.21

Variant	aptazyme ON/OFF ratio
U8G G9U U10C U11C C12G	1.02
U7G G9A U10C U11G C12G C13U	1.06
U8A G9C U10C U11A C12A C13A	1.04
U7C U8G G9C U10C U11C C12A C13U	1.02
U8G G9C U11G C13A	1.05
U7A G9A U10C U11G C13U	1.25
U7C U10G C13U	1.39
U7G U8C G9C U10G C12A C13A	1.1
U7G U8G G9A U10C C13U	1.59
U7A U8A U10A U11C C12A C13U	1.11
U7C U8A G9U U10A U11G C12A C13U	1.14
U7A U8C G9C U10G C12U C13U	1.26
U7A U8A U11G C13U	1.2
U7G U8C G9C U10C U11A C12U C13A	1.04
U7C U8G G9C U10C C12A C13A	1.06
U7A U8A G9C U10G U11A C12A	1.29
U7G U8A G9C U10G U11C C12A C13U	1.05
G9A U10G U11C C13U	1.09
U7A U8G G9A U10G U11C C12U C13A	1.32
U7C U8G G9U U10G U11A C12U	1.13
U7A U8A G9U C12A C13A	1.25
U7G U8C G9A U11C C12A	2
U7G U8G G9C U10A U11G C12A C13A	1.07
U7G U8G G9A U11C C12U	1.65

Variant	aptazyme ON/OFF ratio
U7C U8G U11C C13G	1.12
U7A U8G G9C U10G U11A C12A	1.42
U7G U8A G9C U10A U11A C12A C13G	1.03
U7A U8C G9C C12A C13U	1.07
G9A C12A C13U	1.38
U8A G9C U10G C12A	1.18
U7C U8A G9C U10G U11A C12A	1.38
U7C U8C G9C U10G U11C	1.5
U7C U8G G9C U10C U11A C12U C13U	1.08
U8A G9U U11A C12U C13G	1.09
U7C U10A C13G	1.05
U7G U8C G9U U10G U11A C12A	1.3
U8G G9C C12U	1.07
U8A G9U U10C U11C C13A	1
U7G G9A C12G C13G	1.1
U7G U8G U10G U11A	1.66
U7C U8G G9U U10C C12U	1.4
U7A U8A G9U U10G U11G C12U C13G	1.24
U7G U8A G9A U10G U11C C12U	1.09
U7A U8G G9A U10A U11G C12G C13G	1.46
U8A U10C U11G C12U C13U	1.27
U8A G9U U10G U11C C12G C13U	1.12
U7C U8G U11A C12G C13G	1.11
U7A U8C G9A U11A C12G C13A	1.11

Variant	aptazyme ON/OFF ratio
U7G U8C U10C U11C C12G	1.27
U7G U8C G9C U10C U11A C12G C13U	1.12
U8A G9C U10C U11C C12G C13U	1.04
U7G U8C U10G U11A C12A C13U	1.12
U8G G9C U10G U11A C12G	1.15
U7A G9U U10A C13G	1.05
U7C U8G U10G U11A C12U	1.37
U7A U8C G9C U10C U11G C12A C13U	1.11
U7C G9A U10G C12G C13G	1.1
U7G U8C G9U U10C U11C C13A	1.34
U7A U8C G9A U10G U11C C12U C13A	1.16
U7A U8A G9U U11A C12G C13G	1.16
U7C U8A U10A U11C C12G C13U	1.13
U7C U8G G9A U11C C12U C13A	1.09
U7A U8C G9A U10G C12A C13A	1.24
U8C U10A C12U C13G	1.11
U7C U8G G9A C13U	1.11
U8G G9C C12A C13U	1.07
U7G U8A G9C U10A U11A C12G C13G	1.01
U8C G9C U10C C13A	1.01
U8A U10A C12U C13A	1.21
U8G U10A U11G C12U	1.23
U8A U10G	1.62
U7G U8G G9U U10C C12U C13U	1.35

Variant	aptazyme ON/OFF ratio
U7C U11C C13G	1.05
U8A G9A U10A U11A C12A C13G	1.1
U7C G9C U10A U11G	1.09
U7C U8G G9U U10A U11C C12A	1.14
U7A U8G U10C C12U	1.5
U7A G9A U10G C13U	1.28
U7A U8G G9C U10A U11A C13G	1.15
U8A G9C U10C U11C C12A C13U	1.03
U7C U8A U11A C12U	1.16
U7A G9C U10A C13A	1.16
U7C U8G G9C U10C C13U	1.71
U7A U8C G9U U10C C12U C13G	1.09
U7G U8C U11A C12U C13U	1.21
U7A U8A G9C U10A U11C C12U C13G	1.19
U8G U11G	1.25
U7A U8A G9A U11C C12G C13U	1.09
U7C U8A G9U U10C C12G C13U	1.22
U7C U8C G9U U11A C12U C13A	1.18
U7A G9U U10A	1.4
U8A G9C U10A C12A C13G	1.14
U7A U8G U10A U11C	1.11
U7C U8C G9C U11A	1.71
U7A U8G G9A U11A C13U	1.55
